The chains are these.
B1: wild-type Bet v 1-Mal d 1 hybrid molecule (SEQ ID NO: 3) (protein)
chain: HHHHHHGVFNYETETTSVIPAARLFKAFILDGDNLFPKVAPQAISSVENIEGNGGPGTIKKISFPEGFPFKYVKDRVDEVDHTNFKYNYSVIEGGPIGDTLEKISNEIKIVATPDGGSILKINNKYHTKGDHEVKAEQIKASKEMGETLLRAVESYLLAHSDAYNEFGVYTFENEFTSEIPPSRLFKAFVLDADNLIPKIAPQAIKQAEILEGDGGPGTIKKITFGEGSQYGYVKHKIDSVDEANYSYAYTLIEGDALTDTIEKVSYETKLVASGSGSIIKSISHYHTKGDVEIKEEHVKAGKEKAHGLFKLIESYLKGHPDAYN
B2: mutant Bet v 1-Mal d 1 hybrid molecule (SEQ ID NO: 4) (protein)
chain: B1 chain with K60A, K121A, K129A, D192A, N245A
B3: mixture of the single wt allergens (wt Bet v 1 and wt Mal d 1) (protein)
chain 1: HHHHHHGVFNYETETTSVIPAARLFKAFILDGDNLFPKVAPQAISSVENIEGNGGPGTIKKISFPEGFPFKYVKDRVDEVDHTNFKYNYSVIEGGPIGDTLEKISNEIKIVATPDGGSILKINNKYHTKGDHEVKAEQIKASKEMGETLLRAVESYLLAHSDAYN
chain 2: HHHHHHGVYTFENEFTSEIPPSRLFKAFVLDADNLIPKIAPQAIKQAEILEGDGGPGTIKKITFGEGSQYGYVKHKIDSVDEANYSYAYTLIEGDALTDTIEKVSYETKLVASGSGSIIKSISHYHTKGDVEIKEEHVKAGKEKAHGLFKLIESYLKGHPDAYN
B4: mixture of the two mutagenised allergens (mut Bet v 1-SEQ ID NO:6 and mut Mal d 1-SEQ ID NO:2) (protein)
chain 1: B3 chain 1 with K60A, K121A, K129A
chain 2: B3 chain 2 with D31A, N84A
B5: hypoallergenic Mal d 1 variant with two substitutions, positions 25 and 78 (SEQ ID NO: 2) (protein)
chain: B3 chain 2 with D31A, N84A
B6: wild-type Mal d 1, major allergen of Malus domestica (SEQ ID NO: 1) (protein)
chain: B3 chain 2
B7: Mal d 1 variant with the single substitution Asn 78 in Ala (SEQ ID NO: 11) (protein)
chain: B3 chain 2 with N84A
B8: wild-type Bet v 1, major allergen of Betula verrucosa pollen (SEQ ID NO: 5) (protein)
chain: B3 chain 1

Results on eight molecules are retold here after patent US20140294878A1.

Substitutions are numbered along the chain they refer to.

The first test addresses IgE of patient serum 5. Nature of the test: ELISA inhibition, serum 5 pre-incubated with 1.25 µg/ml inhibitor; competitor: wt Bet v 1 adsorbed on wells. (In an ELISA, binding on a coated surface is turned into a signal by an enzyme label.)
As to B1, the % inhibition of Bet v 1-IgE binding worked out at 50.8%.

In turn, B2 returned a % inhibition of Bet v 1-IgE binding of 7.8%.

For the molecule B3, the % inhibition of Bet v 1-IgE binding was found to be 91.6%.

For B4, the % inhibition of Bet v 1-IgE binding is 41%.

The target in the next test is IgE of patient serum 6. The experiment in a line: ELISA inhibition, serum 6 pre-incubated with 1.25 µg/ml inhibitor; competitor: wt Mal d 1 adsorbed on wells.
For the molecule B1, the % inhibition of Mal d 1-IgE binding is 70.5%.

On to B2, for which the % inhibition of Mal d 1-IgE binding came to 70.8%.

B3 yielded a % inhibition of Mal d 1-IgE binding of 73.7%.

For B4, the % inhibition of Mal d 1-IgE binding was determined as 53.9%.

The target of another test is IgEs from a pool of sera from patients allergic to birch pollen and apple. The experiment in a line: ELISA inhibition, serum pool pre-incubated with 0.625 µg/ml inhibitor; competitor: wt Bet v 1 adsorbed on wells.
On to B5, for which the % inhibition of wt Bet v 1-IgE binding came to 4.2%.

Take B6: the % inhibition of wt Bet v 1-IgE binding was found to be 46%.

The target of another test is IgE of patient serum 2. Nature of the test: ELISA inhibition, serum 2 pre-incubated with 1.25 µg/ml inhibitor; competitor: wt Bet v 1 adsorbed on wells.
With B1, the % inhibition of Bet v 1-IgE binding was determined as 85.1%.

Molecule B2 came in with a % inhibition of Bet v 1-IgE binding of 36.4%.

As for B3, the % inhibition of Bet v 1-IgE binding turned out to be 96.6%.

In the case of B4, the % inhibition of Bet v 1-IgE binding turned out to be 72.8%.

The target of the next test is IgE of patient serum 1. Nature of the test: ELISA inhibition, serum 1 pre-incubated with 1.25 µg/ml inhibitor; competitor: wt Mal d 1 adsorbed on wells.
For B1, the % inhibition of Mal d 1-IgE binding came to 92%.

B2 returned a % inhibition of Mal d 1-IgE binding of 91%.

Take B3: the % inhibition of Mal d 1-IgE binding is 95.5%.

B4 returned a % inhibition of Mal d 1-IgE binding of 76.7%.

The next test has as its target IgE of patient serum 2. Nature of the test: ELISA inhibition, serum 2 pre-incubated with 1.25 µg/ml inhibitor; competitor: wt Mal d 1 adsorbed on wells.
Take B1: the % inhibition of Mal d 1-IgE binding came out at 84.5%.

For B2, the % inhibition of Mal d 1-IgE binding is 41.9%.

Consider B3, for which the % inhibition of Mal d 1-IgE binding was 93.9%.

B4: the % inhibition of Mal d 1-IgE binding is 42.4%.

A further test concerns the target specific IgE contained in the sera of 7 patients allergic to birch and apple. The experiment in a line: ELISA inhibition, 7 sera pre-incubated with 1.25 µg/ml inhibitor; competitor: wt Mal d 1 adsorbed on wells.
In turn, B1 had a mean % inhibition of Mal d 1-IgE binding (7 sera) of 74.6%.

B2 yielded a mean % inhibition of Mal d 1-IgE binding (7 sera) of 63.6%.

B3 displayed a mean % inhibition of Mal d 1-IgE binding (7 sera) of 82.8%.

B4 yielded a mean % inhibition of Mal d 1-IgE binding (7 sera) of 51.6%.

Another test has as its target IgE of patient serum 3. Nature of the test: ELISA inhibition, serum 3 pre-incubated with 1.25 µg/ml inhibitor; competitor: wt Bet v 1 adsorbed on wells.
As to B1, the % inhibition of Bet v 1-IgE binding was 76.2%.

B2 displayed a % inhibition of Bet v 1-IgE binding of 35.9%.

With B3, the % inhibition of Bet v 1-IgE binding amounted to 90.9%.

In turn, B4 yielded a % inhibition of Bet v 1-IgE binding of 52.3%.

In the next test the target is IgEs from a pool of sera from patients allergic to birch pollen and apple. Nature of the test: ELISA inhibition, serum pool pre-treated with 0.3125 µg/ml inhibitor; competitor: wt Mal d 1 adsorbed on wells.
As to B6, the % inhibition of wt Mal d 1-IgE binding worked out at 93.3%.

Another test shares this target. Nature of the test: ELISA inhibition, serum pool pre-incubated with 0.3125 µg/ml inhibitor; competitor: wt Mal d 1 adsorbed on wells.
B5 had a % inhibition of wt Mal d 1-IgE binding of 25.4%.

Take B7: the % inhibition of SEQ ID NO:1-IgE binding stood at 19.7%.

A further test addresses IgE of patient serum 4. Nature of the test: ELISA inhibition, serum 4 pre-incubated with 1.25 µg/ml inhibitor; competitor: wt Bet v 1 adsorbed on wells.
For the molecule B1, the % inhibition of Bet v 1-IgE binding came to 61.7%.

Molecule B2 yielded a % inhibition of Bet v 1-IgE binding of 35.9%.

In the case of B3, the % inhibition of Bet v 1-IgE binding was determined as 81.2%.

B4 registered a % inhibition of Bet v 1-IgE binding of 56.5%.

A further test concerns the target IgE of patient serum 6. Nature of the test: ELISA inhibition, serum 6 pre-incubated with 1.25 µg/ml inhibitor; competitor: wt Bet v 1 adsorbed on wells.
For B1, the % inhibition of Bet v 1-IgE binding worked out at 56.6%.

As for B2, the % inhibition of Bet v 1-IgE binding stood at 0%.

As for B3, the % inhibition of Bet v 1-IgE binding is 65.2%.

B4 returned a % inhibition of Bet v 1-IgE binding of 41.8%.

The target in the next test is IgE of patient serum 1. The experiment in a line: ELISA inhibition, serum 1 pre-incubated with 1.25 µg/ml inhibitor; competitor: wt Bet v 1 adsorbed on wells.
B1 had a % inhibition of Bet v 1-IgE binding of 93.6%.

Consider B2, for which the % inhibition of Bet v 1-IgE binding worked out at 90.2%.

Turning to B3, the % inhibition of Bet v 1-IgE binding stood at 97.1%.

Molecule B4 yielded a % inhibition of Bet v 1-IgE binding of 88.4%.

The next test has as its target IgEs from a pool of sera from patients allergic to birch pollen and apple. Nature of the test: ELISA inhibition, serum pool pre-treated with 0.625 µg/ml inhibitor; competitor: wt Bet v 1 adsorbed on wells.
Regarding B8, the % inhibition of wt Bet v 1-IgE binding stood at 94%.

On to B7, for which the % inhibition of wt Bet v 1-IgE binding was 32.1%.

In the next test the target is IgE of patient serum 5. The experiment in a line: ELISA inhibition, serum 5 pre-incubated with 1.25 µg/ml inhibitor; competitor: wt Mal d 1 adsorbed on wells.
For B1, the % inhibition of Mal d 1-IgE binding came to 68%.

On to B2, for which the % inhibition of Mal d 1-IgE binding is 50.8%.

Molecule B3 returned a % inhibition of Mal d 1-IgE binding of 88.3%.

B4 returned a % inhibition of Mal d 1-IgE binding of 27.6%.

The next test deals with IgE of patient serum 3. Nature of the test: ELISA inhibition, serum 3 pre-incubated with 1.25 µg/ml inhibitor; competitor: wt Mal d 1 adsorbed on wells.
B1 had a % inhibition of Mal d 1-IgE binding of 75.1%.

In turn, B2 gave a % inhibition of Mal d 1-IgE binding of 66.3%.

The molecule B3 registered a % inhibition of Mal d 1-IgE binding of 80.5%.

Regarding B4, the % inhibition of Mal d 1-IgE binding was 49%.

A further test concerns the target IgE of patient serum 7. The experiment in a line: ELISA inhibition, serum 7 pre-incubated with 1.25 µg/ml inhibitor; competitor: wt Mal d 1 adsorbed on wells.
Take B1: the % inhibition of Mal d 1-IgE binding worked out at 60.6%.

Molecule B2 yielded a % inhibition of Mal d 1-IgE binding of 60.4%.

Consider B3, for which the % inhibition of Mal d 1-IgE binding turned out to be 70.3%.

With B4, the % inhibition of Mal d 1-IgE binding was found to be 65.6%.

Another test concerns the target specific IgE contained in the sera of 7 patients allergic to birch and apple. The experiment in a line: ELISA inhibition, 7 sera pre-incubated with 1.25 µg/ml inhibitor; competitor: wt Bet v 1 adsorbed on wells.
For B1, the mean % inhibition of Bet v 1-IgE binding (7 sera) amounted to 63.3%.

In turn, B2 showed a mean % inhibition of Bet v 1-IgE binding (7 sera) of 32.1%.

For the molecule B3, the mean % inhibition of Bet v 1-IgE binding (7 sera) worked out at 79.9%.

Regarding B4, the mean % inhibition of Bet v 1-IgE binding (7 sera) came to 53.3%.

For the next test, the target named is IgE of patient serum 4. Nature of the test: ELISA inhibition, serum 4 pre-incubated with 1.25 µg/ml inhibitor; competitor: wt Mal d 1 adsorbed on wells.
In the case of B1, the % inhibition of Mal d 1-IgE binding was 71.3%.

B2: the % inhibition of Mal d 1-IgE binding stood at 64.3%.

The molecule B3 gave a % inhibition of Mal d 1-IgE binding of 77.3%.

In turn, B4 registered a % inhibition of Mal d 1-IgE binding of 46%.

The next test addresses IgE of patient serum 7. Nature of the test: ELISA inhibition, serum 7 pre-incubated with 1.25 µg/ml inhibitor; competitor: wt Bet v 1 adsorbed on wells.
In the case of B1, the % inhibition of Bet v 1-IgE binding is 15.9%.

B2 displayed a % inhibition of Bet v 1-IgE binding of 18.2%.

Consider B3, for which the % inhibition of Bet v 1-IgE binding was 36.8%.

Take B4: the % inhibition of Bet v 1-IgE binding was found to be 20.6%.
